# According to publication doi:10.1101/2021.11.29.470395 (bioRxiv, 2021):
# B1: full-length FtsZ from E. coli (natural protein, Escherichia coli, UniProt P0A9A6 1-383, looked up)
# chain: MFEPMELTNDAVIKVIGVGGGGGNAVEHMVRERIEGVEFFAVNTDAQALRKTAVGQTIQIGSGITKGLGAGANPEVGRNAADEDRDALRAALEGADMVFIAAGMGGGTGTGAAPVVAEVAKDLGILTVAVVTKPFNFEGKKRMAFAEQGITELSKHVDSLITIPNDKLLKVLGRGISLLDAFGAANDVLKGAVQGIAELITRPGLMNVDFADVRTVMSEMGYAMMGSGVASGEDRAEEAAEMAISSPLLEDIDLSGARGVLVNITAGFDLRLDEFETVGNTIRAFASDNATVVIGTSLDPDMNDELRVTVVATGIGMDKRPEITLVTNKQVQQPVMDRYQQHGMAPLTQEQKPVAKVVNDNAPQTAKEPDYLDIPAFLRKQAD
# notes: FtsZ of Escherichia coli, full length, wild type protein; also called EcFtsZ; source: purified as described [48]
# B2: full-length FtsZ from methicillin-resistant S. aureus Mu50/ATCC 700699 (natural protein)
# chain: MLEFEQGFNHLATLKVIGVGGGGNNAVNRMIDHGMNNVEFIAINTDGQALNLSKAESKIQIGEKLTRGLGAGANPEIGKKAAEESREQIEDAIQGADMVFVTSGMGGGTGTGAAPVVAKIAKEMGALTVGVVTRPFSFEGRKRQTQAAAGVEAMKAAVDTLIVIPNDRLLDIVDKSTPMMEAFKEADNVLRQGVQGISDLIAVSGEVNLDFADVKTIMSNQGSALMGIGVSSGENRAVEAAKKAISSPLLETSIVGAQGVLMNITGGESLSLFEAQEAADIVQDAADEDVNMIFGTVINPELQDEIVVTVIATGFDDKPTSHGRKSGSTGFGTSVNTSSNATSKDESFTSNSSNAQATDSVSERTHTTKEDDIPSFIRNREERRSRRTRR
# Assays:
# [1] = molecular target: the molecule itself; experiment: right angle light scattering at 350 nm; full-length SaFtsZf (49 µM) or EcFtsZ (25 µM), 1 mM GTP with or without BeF3-, 10 mM MgCl2; MES assembly buffer, 25 °C
# [2] = molecular target: the molecule itself; experiment: right angle light scattering at 350 nm
Protein,binding result [1],binding result [2]
B1,binds,
B2,,binds
